Results: the supplement of paper PMC9170038

Test system: MS2 coat protein
Test: apparent KD of MS2 coat protein; designed switch direction (-1 OFF switch, 1 ON switch): 1; higher = weaker reporter binding
Procedure, shortened: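 Transcription of designed RNA switches on Illumina chips was done by stalled E. coli RNA polymerase. SNAP-549-labelled MS2 coat protein was then titrated in doubling steps from 0.7 or 1.5 nM to 3 µM, with steps of 0.8–1.5 h at the lowest and 10–20 min at the highest concentration. The per-design median over clusters of curve-fitted normalised fluorescence is reported as apparent KD.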

[1] = input ligand: microRNA oligo, concentration not stated
[2] = Eterna round: R95, input ligand: FMN 200 uM
[3] = Eterna round: R95, input ligand: microRNA oligo, concentration not stated
[4] = Eterna round: R95, input ligand: none

Sequence | apparent KD of MS2 coat protein (input ligand: FMN 200 uM) [nM] | apparent KD of MS2 coat protein [1] [nM] | apparent KD of MS2 coat protein (input ligand: none) [nM] | apparent KD of MS2 coat protein [2] [nM] | apparent KD of MS2 coat protein [3] [nM] | apparent KD of MS2 coat protein [4] [nM]
GGAGCCGGCCUAGGAUAUUUCAUAAAUAAACAUGAGGAUCACCCAUGUAGGCCAGAAGGCCUUGGGAAGAAGGAGGUCGGCUCC [Loop Effect - U27] (Eterna round: R96, puzzle: Same State NG 2) | 9.58 | 30.2 | 33.9 |  |  | 
UUGCGGGAUUAAGGAUAUUGAGUACAUAUGUUUAACAUGAGGAUCACCCAUGUGGGUUGCGGUAUCGAGAAGGUAACUUACUAC [salish99_SSNG2_r04_804] (Eterna round: R96, puzzle: Same State NG 2) | 92.9 | 79.3 | 96.3 |  |  | 
AGGGAGGAAGCUGAGGAUAUCGUAAGGAGGACAUGAGGAUCACCCAUGUGUAUAGAAUUGGAGGACGAGAAGGCAGAGGAGUGGG [JR_SS2_Sub052] (puzzle: Same State 2) |  |  |  | 25.5 | 29.3 | 25.6
AGAGAACAUGAGGAUCACCCAUGUGGGAGAGGCAUAGGAUAUAGAGGAGAGAGCGAGGAACUAGAAGGAUGAUGGA [JR_SS1_Sub080] (puzzle: Same State 1) |  |  |  | 47.3 | 70.7 | 91.3
GGCUAUCGCAUUCGAUAGCCUGAGCAUGUACAUGAGGAUCACCCAUGUCAUGUACAGGCUUUUUGCUCGUACUUAUA (puzzle: Sensor for hsa-mir-208a) |  |  |  | 71 | 13.6 | 93.4
CGUCCGGCCUGAGCUGGUCGGAAGCAUGUACAUGAGGAUCACCCAUGUUCAUGUGCAGGCUUUUUGCUCGUCUUGUG [salish99_mir208a_modof_jandersonlee_004] (puzzle: Sensor for hsa-mir-208a) |  |  |  | 39.8 | 13.1 | 39.6
GUAGCAUACCGAGGAUAUUCAUAUUAAACAUGAGGAUCACCCAUGUAUUAGGCCAAAAGGCCUUGGGAGAAGGCGGAAUGCUAC [Xeonanis - 20 Mod5] (Eterna round: R96, puzzle: Same State NG 2) | 24.6 | 28.3 | 48.3 |  |  | 
GAUUAACAUGAGGAUCACCCAUGUCGUAUUAUGGGAGGAUAUACGUGGACCGUAGUCCGCGUAGAAGGCCUAAUUG [JL-ss1-3.21 janelle mod] (puzzle: Same State 1) |  |  |  |  | 76.4 | 
AAUUAAUUAAUACAUGAGGAUCACCCAUGUAAUUAUUAGAUCAAGGAUAUCAGCUCGAAUAGAGCUGAGAAGGUGAUCACAUGU [SSNG3/18-A1] (Eterna round: R96, puzzle: Same State NG 3) |  | 259 |  |  |  | 
GAGGGCGAAAGCAACAUGAGGAUCACCCAUGUUGUCGAAAGGCAGGAUAUCCGGCGAAAGCAGAAGGAGAAGGGUCGAAAAGAA [AK SSNG3-V2-40] (Eterna round: R96, puzzle: Same State NG 3) | 14.5 | 19.7 | 24.9 |  |  | 
AAAAGAAACACAGGAUAUACCGCACUUAACGCGGUAGAAGGGUGGGACAUGAGGAUCACCCAUGUGGCCUAAGCGCCAGGCCGC [Tibiorvela] (Eterna round: R96, puzzle: Same State NG 1) | 3890 | 13.1 | 211 |  |  | 
CGGCGCUGUCGAGAGGAUAUGCGGUGAUGGACAUGAGGAUCACCCAUGUUAGCGAUAGCAUUACGGUAGAAGGCUCUACAGCUGC [Soteed Omei mod 4] (puzzle: Same State 2) |  |  |  |  | 27.9 | 
UUUAGCGUUACAGGAUAUGGUGAGGAUUACCCACUAGAAGGGUAAACAUGUGCGUCGUACAUGAGGAUCACCCAUGUAGGGCGU (Eterna round: R96, puzzle: Same State NG 1) | 20.6 | 15.5 | 20.6 |  |  | 
